Reference: PMC2855332

Molecular target: ovine PrP (VRQ allele), PrP^Sc aggregates from brains of prion-infected tg338 mice (sheep) (UniProt P23907)

For “ovine PrP (VRQ allele), PrP^Sc aggregates from brains of prion-infected tg338 mice (from UniProt P23907 25-233) (natural protein)”, the stoichiometry N was 12 to 30 PrP monomers.
